In patent US20210395310A1, “Cyclic Peptide” (The University of Tokyo, priority 2018, published 2021):
Positions of bridges follow the written chain, without caps; N, C: chain ends. Non-standard residues stand in square brackets, D forms with d. Primed or numbered codes have the meaning given here. No end group written: not given here. PEG11′ = PEG11 linker (11-unit polyethylene glycol spacer); PEG5′ = not defined here; PEG11″ = PEG11 linker; βAla = NCCC(=O)O

Columns and labels:
HGF [1] = target: T1, HGF (Homo sapiens, UniProt P14210); test: Binding of cyclic peptides to immobilized HGF by SPR (Biacore T200); conditions: immobilized biotinylated HGF, single cycle kinetics; for kon: read-out: Ka (association rate); for koff: read-out: Kd (dissociation rate)
T1 construct: the full-length human HGF cDNA was cloned into pEHX1.1 plasmid; made in house; host or cells: Chinese hamster ovary (CHO) cells
Description: (§1) Binding of the cyclic peptides to immobilized HGF was measured using surface plasmon resonance (SPR) with Biacore T200 (product of GE Healthcare). Specifically, 2000 resonance units (RU) of biotinylated HGF was immobilized onto a CAP sensor chip by using a biotin capture kit (product of GE Healthcare).
(§2) Binding of the cyclic peptides was tested by injecting varying concentrations of the cyclic peptides into an HBS EP+buffer (10 mM HEPES (pH 7.4), 150 mM NaCl, 3 mM EDTA, and 0.05% (v/v) Surfactant P20) containing 0.1% DMSO at a flow rate of 30 μl/min. Binding of the cyclic peptides to HGF was analyzed by single cycle kinetics analysis.

PC-9 cells = test: Gefitinib resistance test; assay type: cell-based, human; parameters: growth of lung cancer cells: dose or concentration left out as unconfirmed
Description: The resistance to gefitinib, an anticancer agent, was tested by seeding human lung cancer cells, PC-9 cells, on a 24-well plate and cultured for 24 hours on a RPMI medium containing 10% fetal bovine serum. The number of living cells was counted after non-addition or addition of gefitinib ([…]), HGF (20 ng/mL), or HiP8-PEG11 (1-1000 nM) and culturing for 72 hours.

HGF [2] = target: T1, HGF; test: MET activation test: inhibition of HGF-induced MET activation in EHMES-1 cells; assay type: cell-based; conditions: at a concentration of 100 nM or more
Description: EHMES-1 Cells were stimulated for 10 minutes while using a medium with 20 ng/ml ([…]) of an hHGF protein in the presence or absence of a cyclic peptide and washed with phosphate-buffered physiological saline (PBS). Then, 4% paraformaldehyde (PFA) was added in PBS and the resulting mixture was incubated for 30 minutes, followed by further washing three times with PBS. The cells were […] for 30 minutes with 5% goat serum and 0.02% Triton X-100 in PBS and then, incubated at 4° C. for 12 hours in Phospho-Met (Tyr1234/1235) XP rabbit mAb (D26, product of Cell Signaling Technology, Danvers, Commonwealth of Massachusetts), a monoclonal antibody. As the monoclonal antibody, used was that diluted at 1:1000 in a 1% goat serum PBS suspension. The cells were washed three times with PBS and incubated for 1 hour in a liquid obtained by diluting an HRP-conjugated anti-rabbit antibody and a 1% goat serum PBS suspension at 1:1000. […] By using a chemiluminescence method with ImmunoStar (registered trademark) LD reagent (product of Wako Pure Chemicals, Japan), chemiluminescence intensity was measured by ARVO MX (product of Perkin Elmer). Relative MET phosphorylation was calculated as the following: (chemiluminescence unit of sample—chemiluminescence unit of mock control)/(chemiluminescence unit of […]—chemiluminescence unit of mock control). […]
Target sequence in this assay (P14210 32-489 isoform P14210-3): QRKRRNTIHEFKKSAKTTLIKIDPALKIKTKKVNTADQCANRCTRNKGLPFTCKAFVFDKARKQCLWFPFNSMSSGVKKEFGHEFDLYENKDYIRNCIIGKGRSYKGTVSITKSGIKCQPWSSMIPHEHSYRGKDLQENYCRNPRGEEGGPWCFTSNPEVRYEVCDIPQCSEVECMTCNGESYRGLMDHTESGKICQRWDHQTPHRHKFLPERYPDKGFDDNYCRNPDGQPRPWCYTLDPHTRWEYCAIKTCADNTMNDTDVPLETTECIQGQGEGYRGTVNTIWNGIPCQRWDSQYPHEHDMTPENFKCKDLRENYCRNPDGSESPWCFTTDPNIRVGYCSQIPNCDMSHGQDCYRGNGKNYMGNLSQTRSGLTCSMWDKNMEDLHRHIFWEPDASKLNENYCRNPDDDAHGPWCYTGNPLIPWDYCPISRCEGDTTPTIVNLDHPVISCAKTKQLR
Target sequence in this assay (P14210 495-728): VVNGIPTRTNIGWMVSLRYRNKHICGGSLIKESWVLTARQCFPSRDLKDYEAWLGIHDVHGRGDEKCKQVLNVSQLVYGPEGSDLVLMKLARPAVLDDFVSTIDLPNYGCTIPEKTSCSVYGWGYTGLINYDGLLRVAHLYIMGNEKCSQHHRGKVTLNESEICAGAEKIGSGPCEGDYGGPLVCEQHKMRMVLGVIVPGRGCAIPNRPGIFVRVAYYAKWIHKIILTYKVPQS

MET = target: T2, MET (Homo sapiens, UniProt P08581); test: MET activation assay using cells: MET activation by HGF in EHMES-1 cells; assay type: cell-based
T2 construct: endogenous in cells; host or cells: EHMES-1 cells
Description: In EHMES-1 cells, HGF activated MET at EC50=0.07 nM. The arrow in the graph indicates 0.22 nM HGF used for peptide assessment. […] The EC50 value was determined by using dose-response (variable gradient, 4 parameters) curve fitting of Prism 6.0d and plotting the logarithm of MET activation against an HGF concentration. Data thus obtained are expressed as mean±s.d. of three independent measurement results.
EHMES-1 Cells were stimulated for 10 minutes while using a medium with 20 ng/ml ([…]) of an hHGF protein in the presence or absence of a cyclic peptide and washed with phosphate-buffered physiological saline (PBS). Then, 4% paraformaldehyde (PFA) was added in PBS and the resulting mixture was incubated for 30 minutes, followed by further washing three times with PBS. […] By using a chemiluminescence method with ImmunoStar (registered trademark) LD reagent (product of Wako Pure Chemicals, Japan), chemiluminescence intensity was measured by ARVO MX (product of Perkin Elmer). Relative MET phosphorylation was calculated as the following: (chemiluminescence unit of sample—chemiluminescence unit of mock control)/(chemiluminescence unit of […]—chemiluminescence unit of mock control).

[3] = target: T3, biotinylated full-length human HGF (human, UniProt P14210 32-728, biotinylated with a succinimidyl biotin labeling kit (sites not given)); test: SPR, Biacore T200, biotinylated HGF on CAP chip, peptide injected, single cycle kinetics
T3 construct: also called biotinylated HGF; biotinylated hHGF
Description: as §1, §2

[4] = target: human hepatocyte growth factor (HGF), recombinant full-length, active two-chain form (human, UniProt P14210 32-728); test: cell-based or functional assay
fluorescein-HGF [5] = target: T4, fluorescein-HGF (human, UniProt P14210 32-728, labelled with a succinimidyl fluorescein labeling kit (sites not given)); test: competition, flow cytometry: HiP-8 varied against the binding of 0.44 nM fluorescein-HGF to MET-Fc beads
T4 construct: also called fluoresceinated HGF
Description: (§3) Labeling of hHGF with fluorescein was performed using a succinimidyl fluorescein labeling kit (product of Dojindo). On 200 μl (50% v/v) of protein G beads (Spherotech) in Tris-buffered physiological saline (pH 7.5) containing 0.1% BSA and […] of Tween-20, 5 μg of MET-extracellular domain-Fc fusion protein (product of R&D systems) was immobilized. […] The fluorescence intensity of the beads was detected using a flow cytometer (product of FACS Canto II, BD Biosciences).
(§4) For a competitive test of the cyclic peptide, for each of increased concentrations of the cyclic peptide, 0.44 nM fluorescein-HGF and MET-Fc immobilized beads were mixed, the resulting mixture was incubated at 25° C. for 1 hour, and fluorescence intensity of the beads was measured using a flow cytometer.

fluorescein-HGF [6] = target: T4, fluorescein-HGF; test: competition, flow cytometry: peptide varied against the binding of 0.44 nM fluorescein-HGF to MET-Fc beads [lower panel]
Description: as §3, §4

fluorescein-HGF [7] = target: T4, fluorescein-HGF; test: competition, flow cytometry: peptide varied against the binding of 0.44 nM fluorescein-HGF to MET-Fc beads [upper panel]
Description: as §3, §4

tcHGF(Xa) = target: T5, tcHGF(Xa) (human, UniProt P14210 32-490; P14210 495-728); test: SPR, Biacore 3000, HiP8-PEG11-biotin on streptavidin chip, tcHGF(Xa) injected, steady-state affinity
T5 construct: A C-terminal hexahistidine tag was added and the sample was treated with TEV protease; also called mature HGF (Xa)
Description: A very limited portion of the scHGF(Xa) bound to HiP-8-PEG11. A binding rate was detected by surface plasmon resonance (SPR). RU represents a resonance unit (resonance unit). The upward arrow and the downward arrow mean start and end of HGF input, respectively. Data are expressed as mean±s.d. of typical sensorgrams performed in two iterations by using HGFs having a plurality of concentrations.
Binding of HGF and HGF fragments to immobilized HiP8-PEG11 was measured by surface plasmon resonance (SPR) with Biacore 3000 (product of Ge Flealthcare). Hip8-PEG11-biotin was supported on the surface of a streptavidin-coated chip at 10 RU (resonance unit). The test was performed by injecting HGF and HGF fragments with varying concentrations into 10 mM TBS (pH 7.4), 150 mM NaCl, and 0.05% Tween 20 (v/v) at a flow rate of 30 μl/min. Binding affinity was analyzed from a fitting model of steady-state affinity by multi-cycle kinetics analysis.

T3 sequence (P14210 other isoform, or with tags, fused parts or gaps limits assumed): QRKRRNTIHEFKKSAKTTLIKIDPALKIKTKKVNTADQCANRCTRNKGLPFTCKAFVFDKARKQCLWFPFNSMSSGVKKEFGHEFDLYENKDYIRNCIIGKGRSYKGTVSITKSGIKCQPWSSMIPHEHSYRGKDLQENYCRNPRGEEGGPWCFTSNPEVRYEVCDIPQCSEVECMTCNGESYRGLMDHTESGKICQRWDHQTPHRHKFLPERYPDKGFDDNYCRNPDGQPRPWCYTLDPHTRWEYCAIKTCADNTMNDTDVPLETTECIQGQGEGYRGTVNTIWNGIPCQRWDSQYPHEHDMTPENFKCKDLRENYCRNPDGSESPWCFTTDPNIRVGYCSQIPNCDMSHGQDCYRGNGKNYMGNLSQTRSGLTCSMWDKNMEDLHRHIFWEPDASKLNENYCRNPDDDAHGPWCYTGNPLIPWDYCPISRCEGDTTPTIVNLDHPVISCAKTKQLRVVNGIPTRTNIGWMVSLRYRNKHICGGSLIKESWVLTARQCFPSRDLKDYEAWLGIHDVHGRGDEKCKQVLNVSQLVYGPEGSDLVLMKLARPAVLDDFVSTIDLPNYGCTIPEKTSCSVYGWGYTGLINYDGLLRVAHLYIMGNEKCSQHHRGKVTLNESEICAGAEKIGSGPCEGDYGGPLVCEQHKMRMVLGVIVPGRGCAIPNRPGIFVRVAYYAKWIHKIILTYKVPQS
T4 sequence (P14210 other isoform, or with tags, fused parts or gaps limits assumed): as above
human hepatocyte growth factor (HGF), recombinant full-length, active two-chain form, sequence (P14210 other isoform, or with tags, fused parts or gaps limits assumed): as above
T2 sequence (P08581 25-1390): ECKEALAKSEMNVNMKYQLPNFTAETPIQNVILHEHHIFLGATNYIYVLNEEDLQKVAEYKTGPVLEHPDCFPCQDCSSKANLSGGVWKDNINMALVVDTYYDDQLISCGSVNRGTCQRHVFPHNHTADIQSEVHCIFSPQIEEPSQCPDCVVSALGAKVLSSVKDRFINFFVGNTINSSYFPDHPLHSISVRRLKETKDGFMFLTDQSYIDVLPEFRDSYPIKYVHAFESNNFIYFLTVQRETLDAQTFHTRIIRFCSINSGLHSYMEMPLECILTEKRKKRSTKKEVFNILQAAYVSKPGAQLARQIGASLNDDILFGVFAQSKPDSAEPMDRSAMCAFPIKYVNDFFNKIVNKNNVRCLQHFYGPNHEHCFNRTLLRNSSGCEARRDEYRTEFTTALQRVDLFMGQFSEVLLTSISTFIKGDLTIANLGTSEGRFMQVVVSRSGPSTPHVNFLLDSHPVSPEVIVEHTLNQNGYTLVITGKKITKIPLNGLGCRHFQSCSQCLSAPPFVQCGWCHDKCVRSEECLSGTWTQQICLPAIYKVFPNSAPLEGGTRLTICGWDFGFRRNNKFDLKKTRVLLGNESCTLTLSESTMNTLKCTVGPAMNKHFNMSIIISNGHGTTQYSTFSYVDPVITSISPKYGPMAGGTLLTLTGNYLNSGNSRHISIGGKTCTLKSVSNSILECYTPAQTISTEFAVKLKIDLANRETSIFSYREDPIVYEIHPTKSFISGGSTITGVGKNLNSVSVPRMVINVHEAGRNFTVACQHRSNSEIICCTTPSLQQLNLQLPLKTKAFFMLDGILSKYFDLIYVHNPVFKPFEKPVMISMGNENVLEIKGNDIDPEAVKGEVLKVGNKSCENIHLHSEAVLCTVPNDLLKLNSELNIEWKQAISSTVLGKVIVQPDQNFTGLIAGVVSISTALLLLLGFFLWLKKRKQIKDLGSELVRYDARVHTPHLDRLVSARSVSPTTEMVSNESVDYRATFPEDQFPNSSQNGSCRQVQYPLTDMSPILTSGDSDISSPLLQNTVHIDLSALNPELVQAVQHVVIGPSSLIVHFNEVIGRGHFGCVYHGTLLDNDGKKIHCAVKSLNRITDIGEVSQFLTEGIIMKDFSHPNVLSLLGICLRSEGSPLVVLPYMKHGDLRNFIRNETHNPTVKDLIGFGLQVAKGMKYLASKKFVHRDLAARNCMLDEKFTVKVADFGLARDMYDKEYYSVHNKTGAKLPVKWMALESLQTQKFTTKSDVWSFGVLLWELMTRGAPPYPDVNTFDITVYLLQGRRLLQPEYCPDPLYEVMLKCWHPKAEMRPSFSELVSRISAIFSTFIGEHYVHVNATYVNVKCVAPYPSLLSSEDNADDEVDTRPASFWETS
T5 sequence (P14210 other isoform, or with tags, fused parts or gaps limits assumed, chain 1 of 2): as the sequence (P14210 32-489 isoform P14210-3) above, with K455I, Q456E, L457G counted along it
T5 sequence (P14210 495-728 limits assumed, chain 2 of 2): as the sequence (P14210 495-728) above

Molecule: CC[C@H](C)[C@@H]1NC(=O)[C@H](CCCNC(=N)N)NC(=O)[C@H](Cc2ccccc2)NC(=O)[C@H](CCCCN)NC(=O)[C@@H](Cc2c[nH]c3ccccc23)NC(=O)CSC[C@@H](C(=O)NCC(N)=O)NC(=O)[C@H](CCCCN)NC(=O)[C@H](Cc2ccc(O)cc2)NC(=O)[C@H](Cc2c[nH]c3ccccc23)NC(=O)[C@H](CCCCN)NC(=O)[C@H](CO)NC1=O [HiP-12, KFRISKWYK]
- kon (HGF [1]): 700000 M⁻¹ s⁻¹
- koff (HGF [1]): 0.0079 s⁻¹

Molecule: CC[C@H](C)[C@@H]1NC(=O)[C@H](CCCCN)NC(=O)[C@H](Cc2ccccc2)NC(=O)[C@H]([C@@H](C)CC)NC(=O)[C@@H](Cc2c[nH]c3ccccc23)NC(=O)CSC[C@@H](C(=O)NCC(N)=O)NC(=O)[C@H](CCCCN)NC(=O)[C@H](Cc2ccc(O)cc2)NC(=O)[C@H](Cc2c[nH]c3ccccc23)NC(=O)[C@H](CCCCN)NC(=O)[C@H](CO)NC1=O [HiP-13, IFKISKWYK]
- kon (HGF [1]): 1.9e+06 M⁻¹ s⁻¹
- koff (HGF [1]): 0.004 s⁻¹

Molecule: COc1cc2ncnc(Nc3ccc(F)c(Cl)c3)c2cc1OCCCN1CCOCC1 [gefitinib, reference compound]
- growth of lung cancer cells (PC-9 cells): strongly inhibits growth of lung cancer cells

Molecule: KHKISKWKK ({CH2CO}-[dW]KHKISKWKKC; thioether N-11 (inferred)) [HiP-6, thioether cyclic peptide]
- MET inhibitory activity (HGF [2]): had MET inhibitory activity

Molecule: TRKISKWYK ({CH2CO}-[dW]TRKISKWYKC; thioether N-11 (inferred)) [HiP-1, thioether cyclic peptide]
- MET inhibitory activity (HGF [2]): had MET inhibitory activity

Molecule: biotinylated HGF: hHGF biotinylated using a succinimidyl biotin labeling kit
- MET activation activity compared with non-labeled HGF (MET): activity equivalent to that of non-labeled HGF

Molecule: fluorescein HGF: hHGF labeled with fluorescein using a succinimidyl fluorescein labeling kit
- MET activation activity compared with non-labeled HGF (MET): activity equivalent to that of non-labeled HGF

B1: cyclic peptide HiP-12 (peptide)
peptide: {CH2CO}-[dW]KFRISKWYKC
modifications: thioether N-11 (inferred)
notes: C-terminal tail after Cys not known (drawing)
- Kd [3]: 12 nM
- MET inhibitory activity (MET activation inhibition test, EHMES-1 cells) [4]: ≥ 100 nM

B2: cyclic peptide HiP-13 (peptide)
peptide: {CH2CO}-[dW]IFKISKWYKC
modifications: thioether N-11 (inferred)
notes: as for B1
- Kd [3]: 2.1 nM
- MET inhibitory activity (MET activation inhibition test, EHMES-1 cells) [4]: ≥ 100 nM

B3: cyclic peptide HiP-14 (peptide)
peptide: {CH2CO}-[dW]QYKVSKVVYKC
modifications: thioether N-12 (inferred)
- MET inhibitory activity (MET activation inhibition test, EHMES-1 cells) [4]: ≥ 100 nM

B4: cyclic peptide HiP-15 (peptide)
peptide: {CH2CO}-[dW]NRGINKYWKC
modifications: thioether N-11 (inferred)
- MET inhibitory activity (MET activation inhibition test, EHMES-1 cells) [4]: ≥ 100 nM

B5: cyclic peptide HiP-16 (peptide)
peptide: {CH2CO}-[dW]NKKVSKWYKRGC
modifications: thioether N-13 (inferred)
- MET inhibitory activity (MET activation inhibition test, EHMES-1 cells) [4]: ≥ 100 nM

B6: cyclic peptide HiP-8 (peptide)
peptide: {CH2CO}-[dW]PLSKWWYSKRC
modifications: thioether N-12 (inferred)
notes: a C-terminal tail (X')r or amide after Cys is not known
- Kd [3]: 0.4 nM
- MET activation inhibition concentration (IC50), EHMES-1 cells stimulated with hHGF [4]: 8 nM
- IC50 (fluorescein-HGF [5]): 0.9 nM
- IC50 (read off the curve) (fluorescein-HGF [6]): ~1 nM

B7: cyclic peptide HiP-1 (peptide)
peptide: {CH2CO}-[dW]TRKISKWYKC
modifications: thioether N-11 (inferred)
- MET inhibitory activity (MET activation inhibition test, EHMES-1 cells) [4]: ≥ 100 nM

B8: cyclic peptide HiP-6 (peptide)
peptide: {CH2CO}-[dW]KHKISKWKKC
modifications: thioether N-11 (inferred)
- MET inhibitory activity (MET activation inhibition test, EHMES-1 cells) [4]: ≥ 100 nM

B9: cyclic peptide HiP-9 (peptide)
peptide: Ac-[dW]CKVSKWSKC
modifications: thioether (positions not given here); also: thioether to Cys2 or Cys10, not given here
- MET inhibitory activity (MET activation inhibition test, EHMES-1 cells) [4]: ≥ 100 nM

B10: cyclic peptide HiP-10 (peptide)
peptide: Ac-[dW]RYIKLCKISKWSRC
modifications: thioether (positions not given here); also: thioether ring-closing Cys not given here (Cys7 or Cys15)
- MET inhibitory activity (MET activation inhibition test, EHMES-1 cells) [4]: ≥ 100 nM

B11: HiP-8-PEG5 (peptide)
peptide: {CH2CO}-[dW]PLSKWWYSKRC[PEG5′]
modifications: thioether N-12; also: further groups not given here
notes: HiP-8 with a PEG5 tail; also called HiP-8 modified peptide
- IC50 (read off the curve) (fluorescein-HGF [7]): ~1 nM

B12: HiP-8-PEG11 (peptide)
peptide: {CH2CO}-[dW]PLSKWWYSKRC[βAla][PEG11″]
modifications: thioether N-12 (inferred)
notes: also called HiP-8 modified peptide
- IC50 (read off the curve) (fluorescein-HGF [6]): ~1 nM

B13: HiP-8-PEG11-biotin (peptide)
peptide: {CH2CO}-[dW]PLSKWWYSKRC-{βAla-PEG11′-K(D-biotin)}
modifications: thioether N-12 (inferred)
notes: also called immobilized HiP-8-PEG11; HiP-8 (in the staining text)
- Kd (tcHGF(Xa)): 2.5 nM
